# Measured values published in PMC9582194, “The effect of helix-inducing constraints and downsizing upon a transcription block survival-derived functional cJun antagonist” (Cell Reports. Physical Science, 2022).
# Positions of bridges follow the written chain, without caps; N, C: chain ends. No end group written: not given here.
# B1: HW3 (peptide)
# peptide: Ac-LEKEAEELVVEEDVLEEEIEQLEERNYALRKEIEDLQKQLEKL-NH2
# notes: truncation NΔ17 CΔ3 of HW1; source: synthetic peptide (Fmoc SPPS, RP-HPLC purified)
# B2: HW6 (peptide)
# peptide: EDVLEEEIEQLEERNYALRKEIEDLQKQLEKLGAP-NH2
# notes: truncation NΔ28 of HW1: the leucine zipper (LZ) only; also called LZ domain of HW1; source: synthetic peptide (Fmoc SPPS, RP-HPLC purified)
# B3: HW27 (peptide)
# peptide: Ac-EAEELVVEEDVLEEEIEQLEEKNKALKDEIEDLQKQY-NH2
# modifications: lactam 24-28
# SMILES: CC[C@H](C)[C@H](NC(=O)[C@H](CCC(=O)O)NC(=O)[C@@H]1CC(=O)NCCCC[C@H](NC(=O)[C@H](CC(N)=O)NC(=O)[C@H](CCCCN)NC(=O)[C@H](CCC(=O)O)NC(=O)[C@H](CCC(=O)O)NC(=O)[C@H](CC(C)C)NC(=O)[C@H](CCC(N)=O)NC(=O)[C@H](CCC(=O)O)NC(=O)[C@@H](NC(=O)[C@H](CCC(=O)O)NC(=O)[C@H](CCC(=O)O)NC(=O)[C@H](CCC(=O)O)NC(=O)[C@H](CC(C)C)NC(=O)[C@@H](NC(=O)[C@H](CC(=O)O)NC(=O)[C@H](CCC(=O)O)NC(=O)[C@H](CCC(=O)O)NC(=O)[C@@H](NC(=O)[C@@H](NC(=O)[C@H](CC(C)C)NC(=O)[C@H](CCC(=O)O)NC(=O)[C@H](CCC(=O)O)NC(=O)[C@H](C)NC(=O)[C@H](CCC(=O)O)NC(C)=O)C(C)C)C(C)C)C(C)C)[C@@H](C)CC)C(=O)N[C@@H](C)C(=O)N[C@@H](CC(C)C)C(=O)N[C@@H](CCCCN)C(=O)N1)C(=O)N[C@@H](CCC(=O)O)C(=O)N[C@@H](CC(=O)O)C(=O)N[C@@H](CC(C)C)C(=O)N[C@@H](CCC(N)=O)C(=O)N[C@@H](CCCCN)C(=O)N[C@@H](CCC(N)=O)C(=O)N[C@@H](Cc1ccc(O)cc1)C(N)=O
# notes: cyclized form of the pair HW26/HW27; NΔ20 CΔ7; source: synthetic peptide (Fmoc SPPS, on-resin lactamization, RP-HPLC purified)
# B4: HW9 (peptide)
# peptide: Ac-EAEELVVEEDVLEEEIEQLEERNYALRKEIEDL-NH2
# notes: truncation NΔ20 CΔ10 of HW1; source: synthetic peptide (Fmoc SPPS, RP-HPLC purified)
# Molecular target: T1, cJun (60 amino acid construct encompassing the entire bZIP domain) (UniProt P05412 252-315)
# T1 sequence (P05412 252-315): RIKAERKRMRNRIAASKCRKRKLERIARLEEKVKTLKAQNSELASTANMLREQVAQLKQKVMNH
# Assay: cell-based or functional assay
# Conditions: not given
row,Binder,IC50 CD: peptide added to pre-incubated cJun (20 μM) and TRE DNA (5 μM); blocks cJun/TRE DNA binding
1,B1,33.7 µM
2,B2,130 µM
3,B3,94.1 µM
4,B4,1210 µM

# Molecular target: T1, cJun (60 amino acid construct …)
# Assay: CD thermal denaturation; peptide (5 μM) with cJun (5 μM); ellipticity at 222 nm, 1°C to 90°C; 20 mM potassium phosphate, 150 mM potassium fluoride, 2 mM TCEP, pH 7.4; two-state fit gives the Tm of the peptide-cJun heterodimer; duplicate experiments
# Conditions: both partners purified
row,Binder,Tm of the peptide-cJun heterodimer
1,B1,67.9 °C
2,B2,55.1 °C
3,B3,58.9 °C
4,B4,44.8 °C
